Laboratory results from PMC12054373.

Experiments:
[1] = target: T1, bS21 (Halalkalibacterium halodurans C-125?) (UniProt Q9KD65); assay: filter binding; settings: Filter binding: 20 mM Tris-HCl pH 7.5, 150 mM NaCl, 10 mM MgCl2, 1 mM TCEP, 5% glycerol, 0.001% SDS, ~2.5 nM RNA, 20°C, 15 min; in-line probing buffer not in …
T1 sequence: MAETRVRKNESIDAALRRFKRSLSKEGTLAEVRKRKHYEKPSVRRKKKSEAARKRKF

[2] = target: T1, bS21 (Halalkalibacterium halodurans C-125?); assay: footprinting (in-line probing); settings: Filter binding: 20 mM Tris-HCl pH 7.5, 150 mM NaCl, 10 mM MgCl2, 1 mM TCEP, 5% glycerol, 0.001% SDS, ~2.5 nM RNA, 20°C, 15 min; in-line probing buffer not in …

Sequence | binding [1] | binding [2]
GGAUCGAUGAAGCUCCUUGUGAUGGCUUGAGGCGCCCAGCCUUGGGUCAUUGCUGGGAGAAAAGGUAGUAGGGCGAUCCACAAAGGCAUGUGGGCGAUGACCCUCCUACUG [OLE83-191 WT] | binds | binds
GGGGCACAUCGAUGAAGCUCCUUGUGAUGGCUUGAGGCGCCCAGCCUUGGGUCAUUGCUGGGAGAAAAGGUAGUAGGGCGAUCCACAAAGGCAUGUGGGCGAUGACCCUCCUACUGUGGAGGCCUUUUUCUCUGCUGCUUAUGUAUGGACAUAGGGCAAGAGCAAAGGGUAUGAACCUGCGAAGGCAAGCUAGGGAGCUUGUCAGCAGCGUAGCC [OLE78-290] | binds | binds
GGCAUUUAAAGAGGAUUACAGUGUGGACUAAGUGGUAAUCCAGUCUGGCGUUUGGUGACAGCGCCAAGUUCAACAUAAAGGGAAACCGCCAGCGCGGCGACGCACUGGUGUUGAAUUGGGAAAUCCUACUGGACCUAAGCCACAGAGUUUACUCUUUAAAUG [OLE449-608] | binds more weakly | –
